Test results reported in article PMC5469197, “ANGUSTIFOLIA, a Plant Homolog of CtBP/BARS Localizes to Stress Granules and Regulates Their Formation” (Frontiers in Plant Science, 2017).

Biological target: PROTEIN KINASE SU… PROTEIN (AIK1), Prot-A fusion (Arabidopsis thaliana)
Assay: co-IP; LUMIER in HEK293TN cells: Prot-A fusion co-transfected with Renilla luciferase fusion (AN always the luciferase fusion with the interactors); luciferase activity before (input) and after pulldown; percentage pulldown = pulldown/input x 100; empty vectors as negative control; positive if more than two times the background

Chain of PROTEIN KINASE SU… PROTEIN (AIK1), Prot-A fusion (Arabidopsis thaliana) (main, as listed by the source): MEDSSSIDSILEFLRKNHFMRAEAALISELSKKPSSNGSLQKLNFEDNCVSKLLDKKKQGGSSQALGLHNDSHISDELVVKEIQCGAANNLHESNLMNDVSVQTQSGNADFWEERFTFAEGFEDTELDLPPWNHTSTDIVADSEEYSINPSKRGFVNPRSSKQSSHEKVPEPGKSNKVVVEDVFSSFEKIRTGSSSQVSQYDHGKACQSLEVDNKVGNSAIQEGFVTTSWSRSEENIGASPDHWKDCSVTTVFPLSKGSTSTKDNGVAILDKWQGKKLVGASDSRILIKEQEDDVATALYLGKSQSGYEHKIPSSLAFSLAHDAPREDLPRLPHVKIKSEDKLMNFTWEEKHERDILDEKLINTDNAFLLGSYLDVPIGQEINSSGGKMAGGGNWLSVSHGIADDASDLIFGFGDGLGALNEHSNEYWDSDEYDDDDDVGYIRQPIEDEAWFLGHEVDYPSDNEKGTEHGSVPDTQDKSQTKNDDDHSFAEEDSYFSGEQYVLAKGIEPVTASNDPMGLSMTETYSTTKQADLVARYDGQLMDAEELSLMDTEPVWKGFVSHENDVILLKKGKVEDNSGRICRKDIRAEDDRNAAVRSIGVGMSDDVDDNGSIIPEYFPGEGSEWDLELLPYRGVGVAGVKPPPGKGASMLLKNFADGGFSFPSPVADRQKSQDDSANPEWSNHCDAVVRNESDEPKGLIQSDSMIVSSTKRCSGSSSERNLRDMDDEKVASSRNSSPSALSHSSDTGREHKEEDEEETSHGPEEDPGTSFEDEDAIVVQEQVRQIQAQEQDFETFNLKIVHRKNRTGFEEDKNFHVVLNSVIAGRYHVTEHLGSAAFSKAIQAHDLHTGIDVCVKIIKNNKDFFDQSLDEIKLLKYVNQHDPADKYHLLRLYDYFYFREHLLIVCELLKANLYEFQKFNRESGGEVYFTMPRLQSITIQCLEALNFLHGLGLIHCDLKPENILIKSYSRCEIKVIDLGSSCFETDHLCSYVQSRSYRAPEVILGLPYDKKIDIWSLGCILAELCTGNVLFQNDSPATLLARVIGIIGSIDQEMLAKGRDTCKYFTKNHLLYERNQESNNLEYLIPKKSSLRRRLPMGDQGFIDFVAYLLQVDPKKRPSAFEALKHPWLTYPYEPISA

interaction as percent of wild-type AN (% of wild-type AN): 1.6
B1: AN^DOQ, Renilla luciferase fusion (LUMIER) (natural protein)
chain: MSKIRSSATMPHRDQPSPASPHVVTLNCIEDCALEQDSLAGVAGVEYVPLSRIADGKIESATAVLLHSLAYLPRAAQRRLRPHQLILCLGSADRAVDSTLAADLGLRLVHVDTSRAEEIADTVMALILGLLRRTHLLSRHALSASGWLGSLQPLCRGMRRCRGMVLGIVDRSVSARYLASRSLAFKMSVLYFDVPEGDEERIRPSRFPRAARRMDTLNDLLAASDVISLHCALTNDTVQILNAECLQHIKPGAFLVNTGSCQLLDDCAVKQLLIDGTIAGCALDGAEGPQWMEAWVKEMPNVLILPRSADYSEEVWMEIREKAISILHSFFLDGVIPSNTVSDEEVEESEASEEEEQSPSKHEKLAIVESTSRQQGESTLTSTEIVRREASELKESLSPGQQHVSQNTAVKPEGRRSRSGKKAKKRHSQQKYMQKTDGSSGLNEESTSRRDDIAMSDTEEVLSSSSRCASPEDSRSRKTPLEVMQESSPNQLVMSSKKFIGKSSELLKDGYVVALYAKDLSGLHVSRQRTKNGGWFLDTLSNVSKRDPAAQFIIAYRNKDTVGLRSFAAGGKLLQINRRMEFVFASHSFDVWESWSLEGSLDECRLVNCRNSSAVLDVRVEILAMVGDDGITRWID
